Measurements reported in patent US20220324953A1 (JIANGSU HENGRUI MEDICINE, published 2022).

T1: human CTGF protein (R&D, Cat No. 9190-CC) (human, UniProt P29279 27-349)
T1 construct: Bought protein; also called CTGF recombinant protein; CTGF (R&D)
T1 sequence: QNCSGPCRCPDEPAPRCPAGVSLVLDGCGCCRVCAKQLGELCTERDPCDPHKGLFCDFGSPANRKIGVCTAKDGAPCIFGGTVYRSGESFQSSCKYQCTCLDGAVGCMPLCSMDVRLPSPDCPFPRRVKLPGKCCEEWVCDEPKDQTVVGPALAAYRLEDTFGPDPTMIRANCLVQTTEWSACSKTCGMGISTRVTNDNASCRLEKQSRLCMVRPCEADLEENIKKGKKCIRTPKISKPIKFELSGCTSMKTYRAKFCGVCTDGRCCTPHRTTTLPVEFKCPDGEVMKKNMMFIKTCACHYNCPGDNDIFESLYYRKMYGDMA


Columns and labels:
[1] = biological target: T2, Cynomolgus CTGF-Fc (fusion protein of cynomolgus CTGF coding region with Fc) (cynomolgus); experiment: ELISA, cyno-CTGF-Fc captured by anti-mFc
T2 construct: also called cyno-CTGF-mFc protein; cyno-CTGF protein with Fc tag
T2 sequence (chain, as listed by the source limits assumed): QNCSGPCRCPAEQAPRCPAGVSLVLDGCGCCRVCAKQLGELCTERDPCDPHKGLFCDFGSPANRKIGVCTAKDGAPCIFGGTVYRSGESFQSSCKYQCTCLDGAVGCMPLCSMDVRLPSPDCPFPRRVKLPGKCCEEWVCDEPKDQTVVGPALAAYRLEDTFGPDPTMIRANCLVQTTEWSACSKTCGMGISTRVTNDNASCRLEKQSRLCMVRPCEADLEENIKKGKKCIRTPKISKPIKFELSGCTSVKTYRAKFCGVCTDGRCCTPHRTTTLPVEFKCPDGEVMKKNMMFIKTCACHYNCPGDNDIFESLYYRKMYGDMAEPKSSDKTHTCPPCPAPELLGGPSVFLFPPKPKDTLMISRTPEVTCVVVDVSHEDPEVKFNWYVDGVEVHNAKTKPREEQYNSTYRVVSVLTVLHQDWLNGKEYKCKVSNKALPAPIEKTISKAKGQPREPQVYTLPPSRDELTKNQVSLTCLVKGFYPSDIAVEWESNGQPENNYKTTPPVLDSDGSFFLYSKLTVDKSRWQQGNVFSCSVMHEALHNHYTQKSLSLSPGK
Protocol: The binding activity of anti-monkey CTGF antibody to monkey CTGF protein was tested by ELISA assay. A 96-well microtiter plate was directly coated with anti-mFc protein, and then the cyno-CTGF protein with Fc tag was bound to the plate, and then the antibody was added. The signal strength upon the addition of the antibody was used to determine the binding activity of the antibody to cyno-CTGF. The specific experimental procedures were as follows:
The anti-mFc Protein (Sigma, Cat No. M4280) was diluted with PBS, pH 7.4 (Shanghai Yuanpei, Cat No. B320) buffer to a concentration of 2 μg/ml, which was added into the 96-well microtiter plate (Corning, Cat No. CLS3590-100EA) at 50 μl/well, and incubated in an incubator at 37° C. for 2 hours. The liquid was removed, 250 μl/well blocking solution (5% skim milk (BD skim milk, Cat No.232100) diluted in PBS) was added, and incubated in an incubator at 37° C. for 3 hours or at 4° C. overnight (16-18 hours) for blocking. After the blocking was finished, the blocking solution was removed, the plate was washed for 3 times with PBST buffer (PBS containing 0.1% Tween-20, pH 7.4), 50 μl of 1 μg/ml cyno-CTGF-mFc protein was added into each well, incubated in an incubator at 37° C. for 1 hour, and then the plate was washed for 3 times with PBST buffer (PBS containing 0.1% Tween-20, pH 7.4). 50 μl/well of various concentrations of each of the test antibodies (antibodies purified from hybridoma or humanized antibodies) diluted with sample dilution solution were added, and incubated in an incubator at 37° C. for 1 hours. After the incubation was finished, the plate was washed for 3 times with PBST, 50 μl/well of HRP-labeled goat anti-mouse secondary antibody (Jackson Immuno Research, Cat No. 115-035-003) or goat anti-human secondary antibody (Jackson Immuno Research, Cat No. 109-035-003) diluted with sample dilution solution was added, and incubated at 37° C. for 1 hour. The plate was washed for 5 times with PBST, 50 μl/well of TMB chromogenic substrate (KPL, Cat No. 52-00-03) was added, incubated at room temperature for 5-10 min, and 50 μl/well of 1 M H₂SO₄ was added to stop the reaction. The absorbance value was read by a microplate reader (Molecular Devices, VERSA max) at a wavelength of 450 nm, and the data was analyzed with GraphPad Prism 5. The binding of CTGF antibody to cyno CTGF protein was calculated as EC50 value.

[2] = biological target: T1, human CTGF protein (R&D, Cat No. …); experiment: ELISA, plate coated with CTGF (R&D 9190-CC)
Protocol: The binding activity of anti-human CTGF antibody to human CTGF protein was tested by ELISA assay and Biacore. A 96-well microtiter plate was directly coated with the CTGF recombinant protein. The signal strength upon the addition of the antibody was used to determine the binding activity of the antibody to CTGF. The specific experimental procedures were as follows:
The CTGF protein (R&D, Cat No. 9190-CC) was diluted with PBS, pH 7.4 (Shanghai Yuanpei, Cat No. B320) buffer to a concentration of 0.2 μg/ml, 50 μl/well of which was added into the 96-well microtiter plate (Corning, Cat No. CLS3590-100EA), and incubated in an incubator at 37° C. for 2 hours or at 4° C. overnight (16-18 hours). The liquid was removed, 250 μl/ well blocking solution (5% skim milk (BD skim milk, Cat No.232100) diluted in PBS) was added, and incubated in an incubator at 37° C. for 3 hours or at 4° C. overnight (16-18 hours) for blocking. After the blocking was finished, the blocking solution was removed, the plate was washed for 5 times with PBST buffer (PBS containing 0.1% Tween-20, pH 7.4), 50 μl/well of various concentrations of each of the test antibodies (antibodies purified from hybridoma or humanized antibodies) diluted with sample dilution solution were added, and incubated in an incubator at 37° C. for 1 hours. After the incubation was finished, the plate was washed for 3 times with PBST, 50 μl/well of HRP-labeled goat anti-mouse secondary antibody (Jackson Immuno Research, Cat No. 115-035-003) or goat anti-human secondary antibody (Jackson Immuno Research, Cat No. 109-035-003) diluted with sample dilution solution was added, and incubated at 37° C. for 1 hour. The plate was washed for 3 times with PBST, 50 μl/well of TMB chromogenic substrate (KPL, Cat No. 52-00-03) was added, incubated at room temperature for 5-10min, and 50 μl/well of 1 M H₂SO₄ was added to stop the reaction. The absorbance value was read by a microplate reader (Molecular Devices, VERSA max) at a wavelength of 450 nm, and the data was analyzed with GraphPad Prism 5. The binding of CTGF antibody to human CTGF protein was calculated as EC50 value.

| Binder | EC50 [1] [pM] | EC50 [2] [pM] |
| --- | --- | --- |
| Hu147-22wk (antibody, human IgG1, kappa, V domains shown) VH: EVQLVESGGGLVQPGGSLRLSCAASGFTFNTYAMNWVRQAPGKGLEWVARIRTKSNNYATYYADSVKDRFTISRDDSKNSLYLQMNSLKTEDTAVYYCVETGFAYWDQGTLVTVSS VL: EIVLTQSPATLSLSPGERATLSCSASSSVSYMHWFQQKPGQSPKLLIYSTSNLASGIPARFSGSGSGTDYTLTISSLEPEDFAVYYCQQRSSYPLTFGQGTKLEIKR | 73 | 56 |
| Hu147-23wk (antibody, human IgG1, kappa, V domains shown) VH: EVQLVESGGGLVQPGGSLRLSCAASGFTFNTYAMNWVRQAPGKGLEWVARIRTKSNNYATYYADSVKDRFTISRDDSKNSLYLQMNSLKTEDTAVYYCVETGFAYWDQGTLVTVSS VL: EIVLTQSPATLSLSPGERATLSCSASSSVSYMHWFQQKPGQSPKLWIYSTSNLASGVPARFSGSGSGTDYTLTISSLEPEDFAVYYCQQRSSYPLTFGQGTKLEIKR | 63 | 58 |
| Hu147-32wk (antibody, human IgG1, kappa, V domains shown) VH: EVQLVESGGGLVQPGGSLRLSCAASGFSFNTYAMNWVRQAPGKGLEWVARIRTKSNNYATYYADSVKDRFTISRDDSESSLYLQMNSLKTEDTAVYYCVETGFAYWDQGTLVTVSS VL: EIVLTQSPATLSLSPGERATLSCSASSSVSYMHWFQQKPGQSPKLLIYSTSNLASGIPARFSGSGSGTDYTLTISSLEPEDFAVYYCQQRSSYPLTFGQGTKLEIKR | 79 | 63 |
| Hu147-11wk (antibody, human IgG1, kappa, V domains shown) VH: EVQLVESGGGLVQPGGSLRLSCAASGFTFSTYAMNWVRQAPGKGLEWVGRIRTKSNNYATYYADSVKDRFTISRDDSKNSLYLQMNSLKTEDTAVYYCVETGFAYWDQGTLVTVSS VL: EIVLTQSPATLSLSPGERATLSCSASSSVSYMHWFQQKPGQSPRLLIYSTSNLASGIPARFSGSGSGTDYTLTISSLEPEDFAVYYCQQRSSYPLTFGQGTKLEIKR | 52 | 45 |
| Hu147-31wk (antibody, human IgG1, kappa, V domains shown) VH: EVQLVESGGGLVQPGGSLRLSCAASGFSFNTYAMNWVRQAPGKGLEWVARIRTKSNNYATYYADSVKDRFTISRDDSESSLYLQMNSLKTEDTAVYYCVETGFAYWDQGTLVTVSS VL: EIVLTQSPATLSLSPGERATLSCSASSSVSYMHWFQQKPGQSPRLLIYSTSNLASGIPARFSGSGSGTDYTLTISSLEPEDFAVYYCQQRSSYPLTFGQGTKLEIKR | 70 | 56 |
| Hu147-21wk (antibody, human IgG1, kappa, V domains shown) VH: EVQLVESGGGLVQPGGSLRLSCAASGFTFNTYAMNWVRQAPGKGLEWVARIRTKSNNYATYYADSVKDRFTISRDDSKNSLYLQMNSLKTEDTAVYYCVETGFAYWDQGTLVTVSS VL: EIVLTQSPATLSLSPGERATLSCSASSSVSYMHWFQQKPGQSPRLLIYSTSNLASGIPARFSGSGSGTDYTLTISSLEPEDFAVYYCQQRSSYPLTFGQGTKLEIKR | 53 | 67 |
| Hu164-77wl (antibody, human IgG1, lambda, V domains shown) VH: EVQLQESGPGLVKPSQTLSLTCTVSGFSISTFGVHWIRQHPGKGLEWIGVIWRRGGTDYNAAFMSRVTISKDTSKNQVSLKLSSVTAADTAVYYCARDGGFDYWGQGTTVTVSS VL: ETVVTQEPSLTVSPGGTVTLTCRSSIGAVTTSNYANWVQQKPGQAFRGLIGGTSNRAPWTPARFSGSLLGGKAALTLSGVQPEDEAEYYCALWYSTHYVFGGGTKLTVLG | 38 | 55 |
| positive control CTGF antibody mAb1 (antibody, V domains shown, Positive control, from CN1829740B; also called pamrevlumab; FG-3019) VH: EGQLVQSGGGLVHPGGSLRLSCAGSGFTFSSYGMHWVRQAPGKGLEWVSGIGTGGGTYSTDSVKGRFTISRDNAKNSLYLQMNSLRAEDMAVYYCARGDYYGSGSFFDCWGQGTLVTVSS VL: DIQMTQSPSSLSASVGDRVTITCRASQGISSWLAWYQQKPEKAPKSLIYAASSLQSGVPSRFSGSGSGTDFTLTISSLQPEDFATYYCQQYNSYPPTFGQGTKLEIKR | 86 | 67 |

Next, values leading:

| EC50 [1] [pM] | EC50 [2] [pM] | Binder |
| --- | --- | --- |
| 43 | 43 | Hu147-13wk (antibody, human IgG1, kappa, V domains shown) VH: EVQLVESGGGLVQPGGSLRLSCAASGFTFSTYAMNWVRQAPGKGLEWVGRIRTKSNNYATYYADSVKDRFTISRDDSKNSLYLQMNSLKTEDTAVYYCVETGFAYWDQGTLVTVSS VL: EIVLTQSPATLSLSPGERATLSCSASSSVSYMHWFQQKPGQSPKLWIYSTSNLASGVPARFSGSGSGTDYTLTISSLEPEDFAVYYCQQRSSYPLTFGQGTKLEIKR |
| 44 | 54 | Hu147-33wk (antibody, human IgG1, kappa, V domains shown) VH: EVQLVESGGGLVQPGGSLRLSCAASGFSFNTYAMNWVRQAPGKGLEWVARIRTKSNNYATYYADSVKDRFTISRDDSESSLYLQMNSLKTEDTAVYYCVETGFAYWDQGTLVTVSS VL: EIVLTQSPATLSLSPGERATLSCSASSSVSYMHWFQQKPGQSPKLWIYSTSNLASGVPARFSGSGSGTDYTLTISSLEPEDFAVYYCQQRSSYPLTFGQGTKLEIKR |
| 34 | 55 | Hu164-87wl (antibody, human IgG1, lambda, V domains shown) VH: EVQLQESGPGLVKPSQTLSLTCTVSGFSISTFGVHWIRQHPGKGLEWLGVIWRRGGTDYNAAFMSRLTISKDTSKNQVSFKLSSVTAADTAVYYCARDGGFDYWGQGTTVTVSS VL: ETVVTQEPSLTVSPGGTVTLTCRSSIGAVTTSNYANWVQQKPGQAFRGLIGGTSNRAPWTPARFSGSLLGGKAALTLSGVQPEDEAEYYCALWYSTHYVFGGGTKLTVLG |
| 36 | 69 | Hu164-68wl (antibody, human IgG1, lambda, V domains shown) VH: EVTLKESGPVLVKPTETLTLTCTVSGFSLSTFGVHWIRQPPGKGLEWLGVIWRRGGTDYNAAFMSRLTISKDTSKSQVVFTMTNMDPVDTATYYCARDGGFDYWGQGTTVTVSS VL: ETVVTQEPSFSVSPGGTVTLTCRSSIGAVTTSNYANWVQQTPGQAFRGLIGGTSNRAPGVPDRFSGSILGNKAALTITGAQADDESDYYCALWYSTHYVFGGGTKLTVLG |
| 32 | 63 | Hu164-69wl (antibody, human IgG1, lambda, V domains shown) VH: EVTLKESGPVLVKPTETLTLTCTVSGFSLSTFGVHWIRQPPGKGLEWLGVIWRRGGTDYNAAFMSRLTISKDTSKSQVVFTMTNMDPVDTATYYCARDGGFDYWGQGTTVTVSS VL: ESVVTQPPSVSGAPGQRVTISCRSSIGAVTTSNYANWVQQLPGTAFKGLIGGTSNRAPGVPDRFSGSKSGTSASLAITGLQAEDEADYYCALWYSTHYVFGGGTKLTVLG |
